Data taken from patent US20110159013A1 (MERCK, published 2011).

B1: affinity-matured humanized 20C2-1A, IgG1 (humanized A version) (antibody, V domains shown)
VH: QVTLKESGPALVKPTQTLTLTCTFSGFSLSTSGMGVGWIRQPPGKALEWLAHIWWDDDKSYNPSLKSRLTISKDTSKNQVVLTMTNMDPVDTATYYCARRQLGLRSIDAMDYWGQGTTVTVSS
VL: DVVMTQSPLSLPVTPGEPASISCRSSQSILHSNGNTYLEWYLQKPGQSPQLLIYKVSNRFSGVPDRFSGSGSGTDFTLKISRVEAEDVGVYYCFQASRVPLTFGQGTKLEIKR
notes: also called clone SJ-p2-60
B2: humanized 3B3, CDR grafted, IgG1/kappa (antibody, V domains shown)
VH: EVQLVESGGGLVQPGGSLRLSCAASGFTFSSFGMHWVRQAPGKGLEWVAYISRGSSTIYYADTVKGRFTISRDNAKNSLYLQMNSLRAEDTAVYYCARGITTALDYWGQGTLVTVSS
VL: DVVMTQSPLSLPVTPGEPASISCRSSQSIVHSNGNTYLEWYLQKPGQSPQLLIYKASNRFSGVPDRFSGSGSGTDFTLKISRVEAEDVGVYYCFQGSHVPPTFGQGTKLEIKR
notes: also called 3B3 (humanized)
B3: Fab fragment of affinity-matured humanized 20C2-18A (Fab, V domains shown)
VH: QVTLKESGPALVKPTQTLTLTCTFSGFSLSTSGMGVGWIRQPPGKALEWLAHIWWDDDKSYNPSLKSRLTISKDTSKNQVVLTMTNMDPVDTATYYCARRQLGLRSIDAMDYWGQGTTVTVSS
VL: DVVMTQSPLSLPVTPGEPASISCRSSQSILHSNGNTYLEWYLQKPGQSPQLLIYKVSNRFSGVPDRFSGSGSGTDFTLKISRVEAEDVGVYYCMQSSFVPLTFGQGTKLEIKR
B4: humanized 4E2, CDR grafted, IgG1/kappa (antibody, V domains shown)
VH: QVTLKESGPALVKPTQTLTLTCTFSGFSLSTSGMGVGWIRQPPGKALEWLAHIWWDDDKYYNPSLKSQLTISKDTSKNQVVLTMTNMDPVDTATYYCARRSINSVVPEDYFDYWGQGTTVTVSS
VL: DVVMTQSPLSLPVTPGEPASISCRSSQSIVHSNGNTYLEWYLQKPGQSPQLLIYKVSNRFSGVPDRFSGSGSGTDFTLKISRVEAEDVGVYYCFQGSHVPLTFGQGTKLEIKR
notes: also called 4E2 (humanized)
B5: humanized 20C2, veneered, HCVR VenA IgG1 with veneered 20C2 LCVR Kappa (antibody, V domains shown)
VH: QVTLKESGPGILKPSQTLSLTCTFSGFSLSTSGMGVGWFRQPPGKGLEWLAHIWWDDDKSYNPSLKSRLTISKDTSKNQVFLTITNMDPVDTATYYCARRQLGLRSIDAMDYWGQGTTVTVSS
VL: DVVMTQSPLSLPVSLGDPASISCRSSQSILHSNGNTYLEWYLQKPGQSPQLLIYKVSNRFSGVPDRFSGSGSGTDFTLKISRVEAEDLGVYYCFQGSLVPLTFGAGTKLELKR
notes: also called 20C2 VenA
B6: humanized 1F6, CDR grafted, IgG1/kappa (antibody, V domains shown)
VH: EVQLVESGGGLVQPGGSLRLSCAASGFTFSSFGMHWVRQAPGKGLEWVAYISSVSSTIYYADTVKGRFTISRDNSKNTLYLQMNSLRAEDTAVYYCARSGYGSSYGYGMDYWGQGTLVTVSS
VL: DVVMTQSPLSLPVTPGEPASISCRSSQSIVHSNGNTYLEWYLQKPGQSPQLLIYKVSNRFSGVPDRFSGSGSGTDFTLKISRVEAEDVGVYYCFQGSHVPLTFGQGTKLEIKR
notes: also called 1F6 (humanized)
B7: affinity-matured humanized 20C2-2A, IgG1 (humanized A version) (antibody, V domains shown)
VH: QVTLKESGPALVKPTQTLTLTCTFSGFSLSTSGMGVGWIRQPPGKALEWLAHIWWDDDKSYNPSLKSRLTISKDTSKNQVVLTMTNMDPVDTATYYCARRQLGLRSIDAMDYWGQGTTVTVSS
VL: DVVMTQSPLSLPVTPGEPASISCRSSQSILHSNGNTYLEWYLQKPGQSPQLLIYKVSNRFSGVPDRFSGSGSGTDFTLKISRVEAEDVGVYYCFQATRVPLTFGQGTKLEIKR
notes: also called clone SJ-p1-18
B8: humanized 26D6, CDR grafted, IgG1/kappa (antibody)
heavy: not shown
light: DVVMTQSPLSLPVTPGEPASISCRASQSIVHSNGNTYLEWYLQKPGQSPQLLIYRVSNRFSGVPDRFSGSGSGTDFTLKISRVEAEDVGVYYCFQVTHVPLTFGQGTKLEIKRTVAAPSVFIFPPSDEQLKSGTASVVCLLNNFYPREAKVQWKVDNALQSGNSQESVTEQDSKDSTYSLSSTLTLSKADYEKHKVYACEVTHQGLSSPVTKSFNRGEC
B9: humanized 26D6, CDR grafted, IgG2m4/kappa (antibody)
heavy: QVTLKESGPTLVKPTQTLTLTCTFSGFSLSTSGMGVSWIRQPPGKALEWLAHIYWDDDKQYNPSLKSRLTITKDTSKNQVVLTMTNMDPVDTATYYCARRASSSRYDDQFDYWGQGTLVPVSSASTKGPSVFPLAPCSRSTSESTAALGCLVKDYFPEPVTVSWNSGALTSGVHTFPAVLQSSGLYSLSSVVTVTSSNFGTQTYTCNVDHKPSNTKVDKTVERKCCVECPPCPAPPVAGPSVFLFPPKPKDTLMISRTPEVTCVVVDVSQEDPEVQFNWYVDGVEVHNAKTKPREEQFNSTFRVVSVLTVLHQDWLNGKEYKCKVSNKGLPSSIEKTISKTKGQPREPQVYTLPPSREEMTKNQVSLTCLVKGFYPSDIAVEWESNGQPENNYKTTPPMLDSDGSFFLYSKLTVDKSRWQQGNVFSCSVMHEALHNHYTQKSLSLSPGK
light: DVVMTQSPLSLPVTPGEPASISCRASQSIVHSNGNTYLEWYLQKPGQSPQLLIYRVSNRFSGVPDRFSGSGSGTDFTLKISRVEAEDVGVYYCFQVTHVPLTFGQGTKLEIKRTVAAPSVFIFPPSDEQLKSGTASVVCLLNNFYPREAKVQWKVDNALQSGNSQESVTEQDSKDSTYSLSSTLTLSKADYEKHKVYACEVTHQGLSSPVTKSFNRGEC
B10: humanized 2H4, CDR grafted, IgG1/kappa (antibody, V domains shown)
VH: EVQLVESGGGLVQPGGSLRLSCAASGFTFSSFGMHWVRQAPGKGLEWVAYIRSGSSTIYYADTVKGRFTISRDNSKNTLYLQMNSLRAEDTAVYYCARGGNYYGSSRFAYWGQGTLVTVSS
VL: DIQMTQSPSSLSASVGDRVTITCKASQDINSYLSWFQQKPGKAPKTLIYRANRFVDGVPSRFSGSGSGTDYTLTISSLQPEDFATYFCLQYDEFPLTFGGGTKVEIKR
notes: also called 2H4 (humanized)
B11: murine anti-ADDL monoclonal antibody 5F10 (antibody, V domains shown)
VH: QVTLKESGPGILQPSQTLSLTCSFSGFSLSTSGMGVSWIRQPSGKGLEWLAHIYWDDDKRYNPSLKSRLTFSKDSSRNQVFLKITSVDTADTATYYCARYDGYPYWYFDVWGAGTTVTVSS
VL: VVLMTQTPLSLPVSLGDQASISCRSSQSLVHSNGNTYLHWYLQKPGQSPKLLIYKVSNRFSGVPDRFSGSGSGTDFTLKISRVEAEDLGVYFCFQSTHVPLTFGAGTKLELK
B12: murine anti-ADDL monoclonal antibody 2A10 (antibody, mouse IgG1, V domains shown)
VH: QVTLKESGPGILKPSQTLSLTCSFSGFSLSTSGMGVGWIRQPSGKGLEWLAHIWWDDDKYYNPSLKSQLTISKDTSRNQVFLKITSVDTADTATYYCARRSISTLVPEDYFDYWGQGTTLTVSS
VL: DVLMTQTPLSLPVSLGDQASISCRSSQSIVHSNGNTYLEWYLQKPGQSPKLLIYKVSNRFSGVPDRFSGSGSGTDFTLKISRVEAEDLGVYYCFQGSHVPLTFGAGTKLELK
B13: murine anti-ADDL monoclonal antibody 1F4 (antibody, mouse IgG1, V domains shown)
VH: DVQLVESGGGLVQPGGSRKLSCAASGFTFSSFGMHWVRQAPEKGLEWVAYISSVSSTIYYADTVKGRFTISRDNPKNTLFLQMTSLRSEDTAMYYCARSGYGSSYGYGMDYWGQGTLVTVSS
VL: DVLMTQTPLSLPVSLGDQASISCRSSQSIVHSNGNTYLEWYLQKPGQSPKLLIYKVSNRFSGVPDRFSGSGSGTDFTLKISRVEAEDLGVYYCFQGSHVPLTFGAGTKLELK
B14: murine anti-ADDL monoclonal antibody 3B3 (antibody, mouse IgG1, V domains shown)
VH: DVQLVESGGGLVQPGGSRKLSCAASGFTFSSFGMHWVRQAPEKGLEWVAYISRGSSTIYYADTVKGRFTISRDNPKNTLFLQMTSLRSEDTAMYYCARGITTALDYWGQGTSVTVSS
VL: DVLMTQTPLSLPVSLGDQASISCRSSQSIVHSNGNTYLEWYLQKPGQSPKLLIYKASNRFSGVPDRFSGSGSGTDFTLKISRVEAEDLGVYYCFQGSHVPPTFGGGTKLEIK
B15: murine anti-ADDL monoclonal antibody 2D6 (antibody, mouse IgG1, V domains shown)
VH: QVTLKESGPGILKPSQTLSLTCSFSGFSLSTSGMGVGWIRQPSGKGLEWLAHIWWDDDKYYNPSLKSQLTISKDTSRNQVFLKITSVDTADTATYYCARRSISTVIPEDYFDYWGQGTILTVSS
VL: DVLMTQTPLSLTVSLGDQASISCRSSQSIVHSNGNTYLEWYLQKPGQSPKLLIYKVSNRFSGVPDRFSGSGSGTDFTLKISRVEAEDLGVYYCFQGSHVPLTFGAGTKLELK
B16: murine anti-ADDL monoclonal antibody 4C2 (antibody, mouse IgG1, V domains shown)
VH: QVTLKESGPGILKPSQTLSLTCSFSGFSLSTSGMGVGWIRQPSGKGLEWLAHIWWDDDKYYNPSLKSQLTISKDTSRNQVFLKITSVDTADTATYYCARRSITTVVPEDYFAYWGQGTTLTVSS
VL: DVLMTQSPLSLPVSLGDQASISCRSSQSIVHSNGNTYLEWYLQKPGQSPKLLIYKVSNRFSGVPDRFSGSGSGTDFTLKISRVEAEDLGVYYCFQGSHVPLTFGAGTKLELK

Legend:
[1] = molecular target: T1, biotinylated ADDLs (bADDLs), oligomers prepared from N-terminal biotinylated amyloid β1-42 (N-terminal biotin); assay: BIACORE, bADDL as antigen, IgG1 #1
T1 construct: also called high molecular weight 10% bADDL

[2] = molecular target: T1, biotinylated ADDLs (bADDLs), oligomers …; assay: titration ELISA on streptavidin-captured 10% biotinylated ADDL
[3] = molecular target: T1, biotinylated ADDLs (bADDLs), oligomers …; assay: BIACORE, bADDL as antigen, Fab
[4] = molecular target: T1, biotinylated ADDLs (bADDLs), oligomers …; assay: BIACORE, bADDL as antigen, IgG1 #2
[5] = molecular target: ADDL fibril preparation (Aβ1-42 fibrils made in 10 mM hydrochloric acid); assay: solution equilibrium titration; free IgG by ELISA; GraFit
[6] = molecular target: T2, SEC Peak 1 fraction of ADDLs (large aggregates, >50 kDa); assay: sandwich ELISA with polyclonal M90 as capture antibody; signal on SEC Peak 1 divided by signal on SEC Peak 2 of ADDLs
T2 construct: Size exclusion fraction of synthetic ADDLs; monomer, trimer, tetramer and 12-24 mers on SDS-PAGE

[7] = molecular target: T3, tetramers of ADDLs (multi-dimensional conformation of soluble amyloid β1-42 oligomers, as defined by SDS-PAGE) (UniProt P05067 672-713); assay: recognition of ADDL species defined by SDS-PAGE (see FIG. 3)
T3 construct: domain: amyloid β1-42; It is a species within the ADDL preparation

[8] = molecular target: T4, trimers of ADDLs (multi-dimensional conformation of soluble amyloid β1-42 oligomers, as defined by SDS-PAGE) (UniProt P05067 672-713); assay: as above
T4 construct: domain: amyloid β1-42; It is a species within the ADDL preparation

[9] = molecular target: T5, higher molecular weight oligomers of the ADDL preparation; assay: western immunoblot of ADDLs after SDS-PAGE (column DENATURED SPECIES IDENTIFIED: HMW ADDLs)
T5 construct: also called higher molecular weight material (12-24 mer)

[10] = molecular target: T6, Aβ-derived diffusible ligands (synthetic ADDLs), soluble oligomers of amyloid β1-42; assay: solution equilibrium titration; free IgG by ELISA; GraFit
T6 construct: number of copies varies (trimer, tetramer, 12-24 mer)

Row | Binder | binding result [2] | Kd [5] | further results
1 | B1 |  |  | Kd [1]: 0.075 nM
2 | B2 | binds |  | 
3 | B3 |  |  | Kd [3]: 85 nM
4 | B4 | binds |  | 
5 | B5 | binds |  | 
6 | B6 | binds |  | 
7 | B7 |  |  | Kd [1]: 0.015 nM; Kd [4]: 0.0003 nM
8 | B8 | binds |  | 
9 | B9 | binds |  | 
10 | B10 | binds |  | 
11 | B11 |  | 28.9 nM | Peak 1/Peak 2 Ratio (ELISA) [6]: 18
12 | B12 |  | 6.72 nM | binding result [7]: binds; binding result [8]: binds; binding result [9]: binds; Peak 1/Peak 2 Ratio (ELISA) [6]: 20
13 | B13 |  | 12.5 nM | Kd [10]: 9.24 nM
14 | B14 |  | 7.21 nM | 
15 | B15 |  | 14.4 nM | Peak 1/Peak 2 Ratio (ELISA) [6]: 19
16 | B16 |  | 19.2 nM | binding result [9]: binds; Peak 1/Peak 2 Ratio (ELISA) [6]: 18
